US20200002421A1, “ANTI-B7-H3 ANTIBODIES AND ANTIBODY DRUG CONJUGATES” (AbbVie Inc., priority 2016, published 2020)

Experiments:
huB7-H3 = target: T1, huB7-H3 (Homo sapiens, UniProt Q5ZPR3); assay: Biacore T200 SPR binding kinetics, mAb capture; conditions: Table 3
T1 construct: His tag (6xHis) (C)
T1 sequence (Q5ZPR3 with tags, fused parts or gaps): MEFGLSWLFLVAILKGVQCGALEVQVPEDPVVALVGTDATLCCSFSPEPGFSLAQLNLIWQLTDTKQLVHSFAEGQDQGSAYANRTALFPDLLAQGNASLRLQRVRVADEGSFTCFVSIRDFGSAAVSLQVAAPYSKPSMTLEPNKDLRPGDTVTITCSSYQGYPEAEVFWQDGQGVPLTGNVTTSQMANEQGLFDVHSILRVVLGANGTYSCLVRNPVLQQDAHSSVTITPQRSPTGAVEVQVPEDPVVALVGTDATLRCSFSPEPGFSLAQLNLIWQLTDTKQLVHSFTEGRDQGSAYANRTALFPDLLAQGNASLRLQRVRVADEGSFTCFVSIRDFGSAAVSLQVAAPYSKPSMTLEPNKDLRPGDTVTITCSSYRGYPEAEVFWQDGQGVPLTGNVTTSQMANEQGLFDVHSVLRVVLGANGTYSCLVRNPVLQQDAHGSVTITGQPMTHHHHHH
Protocol: The binding affinity of the purified anti-B7-H3 monoclonal antibodies was determined by surface […]. […] The binding kinetics were derived from SPR measurements using a Biacore T200 instrument and a mAb capture approach (as described in the materials and methods below).
Biacore T200 SPR instruments were used to measure the binding kinetics of human B7-H3 (4Ig-B7-H3 variant) (analyte) binding to various mAbs (ligands). The assay format was Fc-based capture via immobilized anti-mouse (Fc) (Pierce 31170) or immobilized anti-human (Fc) (Pierce 31125). A standard amine coupling protocol was employed to immobilize the capture reagents via primary amines to the carboxy-methyl (CM) dextran surface of CM5 sensorchips (Biacore); capture antibodies were coupled to a level of approximately 5000 RU. For binding kinetic measurements the assay buffer was HBS-EP+(Biacore): 10 mM Hepes, pH7.4, 150 mM NaCl, 3 mM EDTA, 0.05% polysorbate 20. During the assay, all measurements were referenced against the capture surface alone. Each assay cycle consisted of the following steps: 1) Capture of ligand to approximately 50 RU; 2) Analyte injection over both reference and test surface, 240 μL at 80 μL/min, after which the dissociation was monitored for 900 seconds at 80 μL/min; 3) Regeneration of capture surface with low pH glycine. For kinetic determinations analyte injections were 3-point, 9-fold dilution series of 900 nM, 100 nM and 11.11 nM, buffer only injections were included for secondary referencing. Data were processed and fit to a 1:1 binding model using Biacore T200 Evaluation Software to determine the binding kinetic rate constants, ka (on-rate) and kd (off-rate), and the equilibrium dissociation constant (affinity, KD).

human B7-H3 = target: T2, human B7-H3 (Homo sapiens, UniProt Q5ZPR3); assay: Epitope grouping by pair-wise Biacore SPR binding; conditions: simultaneous binding assay, FIG. 1
T2 construct: His tag (6xHis) (C)
T2 sequence (Q5ZPR3 with tags, fused parts or gaps): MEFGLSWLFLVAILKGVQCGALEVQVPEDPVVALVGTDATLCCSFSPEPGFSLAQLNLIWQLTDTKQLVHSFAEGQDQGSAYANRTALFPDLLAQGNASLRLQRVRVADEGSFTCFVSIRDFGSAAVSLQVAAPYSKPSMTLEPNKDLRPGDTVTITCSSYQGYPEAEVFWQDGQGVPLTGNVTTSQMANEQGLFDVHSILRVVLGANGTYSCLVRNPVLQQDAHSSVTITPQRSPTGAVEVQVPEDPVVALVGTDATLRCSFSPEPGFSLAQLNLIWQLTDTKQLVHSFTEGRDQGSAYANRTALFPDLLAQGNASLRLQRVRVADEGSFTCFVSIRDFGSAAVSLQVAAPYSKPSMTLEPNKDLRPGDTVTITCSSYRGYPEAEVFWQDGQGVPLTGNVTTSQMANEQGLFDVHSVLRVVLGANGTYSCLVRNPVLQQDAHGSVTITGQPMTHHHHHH
Text: Pair-wise binding assays performed on Biacore T200 SPR instruments were used to determine the relative epitope grouping for the murine anti-B7-H3 mAbs as described in the methods below. […] Epitope groups are represented as individual ovals, some of which overlap with each other. Antibodies in different epitope groups can bind to B7-H3 simultaneously and likely bind to different epitopes while antibodies within a given epitope group cannot bind to B7-H3 simultaneously and likely bind to overlapping epitopes. The grouping information was derived from a simultaneous binding assay as described in materials and methods. Ab3, Ab4, Ab5, Abl 1, Ab12, and Ab8 groupings were ambiguous
Pair-wise binding assays performed on Biacore T200 SPR instruments were used to determine the relative epitope grouping for a series of anti-B7-H3 mAbs. The assay format was Fc-based capture via immobilized anti-mouse (Fc) (Pierce 31170) or immobilized anti-human (Fc) (Pierce 31125). A standard amine coupling protocol was employed to immobilize the capture reagents via primary amines to the carboxy-methyl (CM) dextran surface of CM5 sensorchips (Biacore); capture antibodies were coupled to a level of approximately 2000 RU. Epitope grouping measurements were done at 12° C. (low temperature allows for grouping information on fast off-rate mAbs), the assay buffer was HBS-EP+(Biacore): 10 mM Hepes, pH7.4, 150 mM NaCl, 3 mM EDTA, 0.05% polysorbate 20. Each assay cycle consisted of the following steps in a four flowcell system: 1) separate test mAbs were captured in flowcells 2, 3 & 4 (flowcell 1 was reference, no test mAb); 2) all 4 flowcells were then blocked by injection with isotype control mAb or isotype mAb cocktail at 50 μg/mL; 3) all 4 flowcells were then injected with antigen or buffer only (buffer only is for double referencing, done for each mAb pair individually); 4) all 4 flowcells were then injected with 2nd test mAb at 10 μg/mL; 5) all 4 flowcells were then regenerated with glycine, pH1.5. The assay was done for each test mAb pair in reciprocal orientations. Simultaneous binding was evaluated examining the ratio of the 2nd test mAb response to the Ag response (RUmAb2/RUAg); if this ratio was equal to or greater than 0.2 the interaction was scored as a simultaneous binder. From this pair-wise binding assay data a “venn” style diagram was constructed manually to depict relative epitope groupings.

HCC38 cell line = assay: In vitro cell viability assay (CellTiter-Glo), HCC38; type: cell-based, human; conditions: conjugated to synthon CZ
Protocol: The tumor cell lines HCC38 (breast cancer), NCI-H1650 (NSCLC) and NCI-H847 (small cell lung cancer cell line) were obtained from American Type Culture Collection (ATCC). Cells were grown in 96-well culture plates using recommended growth media overnight at a density of 5×10^3 (HCC38) or 20×10^3 (NCI-H847) or 40×10^3 (NCI-H1650) per well. The following day, treatments were added in fresh media to triplicate wells. Cellular viability was determined 5 days later using the CellTiter-Glo Luminescent Cell Viability Assay kit (Promega), as directed in the manufacturer's protocol. Cell viability was assessed as percentage of control untreated cells.

[1] = Conjugation observation (precipitation after conjugation, Method A); type: physicochemical; conditions: conjugated to synthon CZ
Protocol: Table 6 provides cell surface binding and cytotoxicity activity of anti-B7-H3 chimera ADCs against breast cancer cell HCC38 expressing human B7-H3.
A solution of Bond-Breaker™ tris(2-carboxyethyl)phosphine (TCEP) solution (10 mM, 0.017 mL) was added to a solution of antibody (10 mg/mL, 1 mL) preheated to 37° C. The reaction mixture was kept at 37° C. for 1 hour. The solution of reduced antibody was added to a solution of synthon (3.3 mM, 0.160 mL in DMSO) and gently mixed for 30 minutes. The reaction solution was loaded onto a desalting column (PD10, washed with Dulbecco's phosphate-buffered saline [DPBS] 3× before use), followed by DPBS (3 mL). The purified ADC solution was filtered through a 0.2 micron, low protein-binding 13 mm syringe-filter and stored at 4° C.

huB7-H3 ka(1/Ms) (huB7-H3) [M⁻¹ s⁻¹]	epitope grouping (human B7-H3)	Molecule	cytotoxicity in cells expressing human B7-H3 / HCC38 cell line (in words) (HCC38 cell line)	precipitation following conjugation to synthon CZ (in words) [1]
58000	ambiguous	Ab8: mouse hybridoma anti-B7-H3 monoclonal antibody, mouse IgG1/k (antibody, V domains shown) VH: EVKLVESGGGLVKPGGSLKLSCAASGFTFSSYGMSWVRQTPEKRLEWVATISGGGNYTYCPDSVKGRFTISRDNAKNNLYLQMSSLRSEDTALYYCTRQRGYDYHYAMDFWGQGTSVTVSS VL: DIQMTQSPASLSVSVGETVTITCRASENIYSNLAWHQQKQGKSPQLLVYAATNLADGVPSRFSGNGSDTQYSLKINSLQSEDFGSYFCQNFWGTSWTFGGGTKLEIK		
1.3e+06	ambiguous	Ab5: mouse hybridoma anti-B7-H3 monoclonal antibody, mouse IgG1/k (antibody, V domains shown) VH: QVQLQQPGDELVKPGASVKLSCKTSGYTFTTDWMHWVKQRPGQGLEWIGMIHPNSGTTNYNEKFKSKAALTVDKSSSTACMQLSSLTSEDSAVYYCARSYWKWYFDVWGTGTTVTVSS VL: QIVLTQSPAIMSASLGEEITLTCSASSSVSYMHWYQQKSGTSPKLLIYSTSNLASGVPSRFSGSGSGTFYSLTISSVEAEDSADYYCHQWTSYMYTFGGGTKLEIK		
38000	ambiguous	Ab12: mouse hybridoma anti-B7-H3 monoclonal antibody, mouse IgG1/k (antibody, V domains shown) VH: EVQLVESGGGLVKPGGSLKLSCAASGFTFSSYAMSWVRQTPEKRLEWVATISSGTNYTYYPDSVKGRFTISRDNAKNTLYLQMTSLRSEDTAMYYCARQGRYSWIAYWGQGTLVTVSA VL: DIVLTQSPASLAVSLGQRATISCRASKSVSTSDYSYMHWNQQKPGQPPKLLIYLASNLESGVPARFSGSGSGTDFTLNIHPVEEEDAATYYCQHSRELLTFGAGTKLELK		

More lines, now with the values behind:

Molecule	huB7-H3 ka(1/Ms) (huB7-H3) [M⁻¹ s⁻¹]	epitope grouping (human B7-H3)	cytotoxicity in cells expressing human B7-H3 / HCC38 cell line (in words) (HCC38 cell line)	precipitation following conjugation to synthon CZ (in words) [1]
Ab3: mouse hybridoma anti-B7-H3 monoclonal antibody, mouse IgG1/k (antibody, V domains shown) VH: QVQLQQPGAELVKPGASVKLSCKASGYTFSSYWMHWVKQRPGQGLEWIGLIHPDSGSTNYNEMFKNKATLTVDRSSSTAYVQLSSLTSEDSAVYFCAGGGRLYFDYWGQGTTLTVSS VL: DVVMTQTPLSLPVSLGDQASISCRSSQSLVHSNGDTYLRWYLQKPGQSPKLLIYKVSNRFSGVPDRFSGSGSGTDFTLKITRVEAEDLGVYFCSQSTHVPYTFGGGTKLEIK	520000	ambiguous		
chAb2: chimeric anti-B7-H3 antibody huIgG1/k, parental hybridoma Ab2; VH SEQ ID NO: 1, VL SEQ ID NO: 5 (antibody, V domains shown, human IgG1/kappa constant regions; Synthetic chAb2 VH amino acid sequence; Synthetic chAb2 VL amino acid sequence) VH: QVQLQQPGAELVKPGASVKLSCKASGYTFTSYWMHWVKQRPGQGLEWIGMIHPDSGTTNYNEKFRSKATLTVDKSSSTAYMQLSSLTSEDSAVYYCAVYYGSTYWYFDVWGTGTTVTVSS VL: DVVMTQTPLSLPVSLGDQAYISCRSSQSLVHINGNTYLHWYRQKPGQSPKLLIYKVSNRFSGVPDRFSGSGSGTDFTLKISRVEAEDLGVYFCSQSTHFPFTFGSGTKLEIK			weak cytotoxicity	precipitated
Ab11: mouse hybridoma anti-B7-H3 monoclonal antibody, mouse IgG1/k (antibody, V domains shown) VH: EVKLVESGGGLVQPGGSLRLSCATSGFTFTNYYMSWVRQPPGKALEWLGFIRNKANDYTTEYSASVKGRFTISRDNSQSILYLQMNTLRAEDSATYYCARESPGNPFAYWGQGTLVTVSA VL: DIVMTQSPSSLTVTAGEKVTMTCKSSQSLLNSGTQKNFLTWYQQKPGQPPKLLIYWASTRESGVPDRFTGSGSGTDFTLTISSVQAEDLAVYFCQNDYIYPLTFGAGTKLELK	20000	ambiguous		
Ab4: mouse hybridoma anti-B7-H3 monoclonal antibody, mouse IgG2b/k (antibody, V domains shown) VH: QVQLQQPGAELVKPGASVKLSCKASGYSFTSYWMHWVKQRPGQGLEWIGMIHPNSGSNNYNEKFKSKATLTVDKSSNTAYMQLSSLTSEDSAVYYCARRLGLHFDYWGQGTTLTVSS VL: DIVMTQSQKFMSTPVGDRVSITCKASQNVGTAVAWYQQKPGQSPKLLIYSASNRYTGVPDRFTGSGSGTDFTLTISNMQSEDLADYFCQQYSSYPYTFGGGTKLEIK	690000	ambiguous		
Ab17: mouse hybridoma anti-B7-H3 monoclonal antibody, mouse IgG2b/k (antibody, V domains shown) VH: EVKLVESGGGLVQPGGSLKLSCAASGFTFSSYIMSWVRQTPEKRLEWVASIVSSNITYYPDSMKGRFTISRDNARNILYLQMSSLKSEDTAMYYCARSGTRAWFAYWGQGTLVTVSA VL: DIVLTQSPASLAVSLGQRATISCRASKSVSTSAYSYMHWYQQKPGQPPKLLIYLASNLESGVPARFSGSGSGTDFTLNIHPVEEEDAATYYCQHSRELPYTFGGGTKLEIK	540000			
